To fix the notation:
B2: S. cerevisiae Arf1 (residues 18–181) I43E with a C-terminal GST tag (domain or fragment, UniProt P11076 18-181, looked up)
chain: MRILMVGLDGAGKTTVLYKLKLGEVETTIPTIGFNVETVQYKNISFTVWDVGGQDRIRSLWRHYYRNTEGVIFVVDSNDRSRIGEAREVMQRMLNEDELRNAAWLVFANKQDLPEAMSAAEITEKLGLHSIRNRPWFIQATCATSGEGLYEGLEWLSNSLKNST

Test [1] has as its target B2. In words: pull-down.
The target of another test is T1, full-length γζ-COP dimer (B. taurus, UniProt P53620 1-874; P35604 1-177).
T1 sequence (looked up) 1: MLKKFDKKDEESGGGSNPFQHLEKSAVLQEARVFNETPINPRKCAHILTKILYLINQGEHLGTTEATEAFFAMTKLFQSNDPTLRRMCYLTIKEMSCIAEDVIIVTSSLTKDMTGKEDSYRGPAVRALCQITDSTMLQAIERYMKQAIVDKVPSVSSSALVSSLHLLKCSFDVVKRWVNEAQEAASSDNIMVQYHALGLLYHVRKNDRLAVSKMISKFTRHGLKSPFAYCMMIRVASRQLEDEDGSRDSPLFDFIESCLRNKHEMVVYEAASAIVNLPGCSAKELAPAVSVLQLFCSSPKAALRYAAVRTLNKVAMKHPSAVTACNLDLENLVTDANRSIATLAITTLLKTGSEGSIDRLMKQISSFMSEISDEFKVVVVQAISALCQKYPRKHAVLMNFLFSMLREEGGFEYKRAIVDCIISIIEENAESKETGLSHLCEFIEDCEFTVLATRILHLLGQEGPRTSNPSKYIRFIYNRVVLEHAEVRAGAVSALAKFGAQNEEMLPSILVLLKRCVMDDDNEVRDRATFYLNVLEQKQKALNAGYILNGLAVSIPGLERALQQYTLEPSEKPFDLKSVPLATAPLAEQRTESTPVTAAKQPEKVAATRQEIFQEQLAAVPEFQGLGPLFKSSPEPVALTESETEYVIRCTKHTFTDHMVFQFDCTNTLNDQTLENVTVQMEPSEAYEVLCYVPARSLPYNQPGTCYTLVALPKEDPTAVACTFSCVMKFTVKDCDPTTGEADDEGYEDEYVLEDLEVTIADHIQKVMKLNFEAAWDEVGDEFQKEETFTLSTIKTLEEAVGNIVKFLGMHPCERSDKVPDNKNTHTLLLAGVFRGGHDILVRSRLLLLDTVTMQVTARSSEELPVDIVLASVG
T1 sequence (looked up) 2: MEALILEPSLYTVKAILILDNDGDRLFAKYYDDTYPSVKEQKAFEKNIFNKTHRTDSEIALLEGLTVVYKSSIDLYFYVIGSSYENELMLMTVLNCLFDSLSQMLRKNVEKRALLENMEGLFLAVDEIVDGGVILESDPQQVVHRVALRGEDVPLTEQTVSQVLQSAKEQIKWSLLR
The test can be described thus: pull-down.

Test [2] concerns the target T2, γζ-COP core complex (bovine γ-COP 1–355 plus ζ-COP 1–153) (B. taurus, UniProt P53620 1-355; P35604 1-153).
T2 sequence (looked up) 1: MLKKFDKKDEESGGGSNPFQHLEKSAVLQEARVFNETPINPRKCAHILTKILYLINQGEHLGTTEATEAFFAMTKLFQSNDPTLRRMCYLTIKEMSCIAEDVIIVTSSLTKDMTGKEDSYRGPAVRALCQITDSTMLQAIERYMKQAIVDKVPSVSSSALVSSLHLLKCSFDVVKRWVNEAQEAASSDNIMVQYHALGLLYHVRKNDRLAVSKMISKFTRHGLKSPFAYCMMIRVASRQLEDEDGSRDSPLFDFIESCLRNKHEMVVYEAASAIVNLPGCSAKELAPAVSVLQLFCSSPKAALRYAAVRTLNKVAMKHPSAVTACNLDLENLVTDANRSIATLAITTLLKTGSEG
T2 sequence (looked up) 2: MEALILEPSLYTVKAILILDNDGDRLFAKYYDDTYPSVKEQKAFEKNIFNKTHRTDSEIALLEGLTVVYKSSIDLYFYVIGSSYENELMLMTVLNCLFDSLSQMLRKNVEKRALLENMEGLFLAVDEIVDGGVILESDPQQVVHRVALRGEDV
In words: crystal structure.

Test [3] has as its target full-length βδ/γζ-COP complex (R. norvegicus | B. taurus, UniProt P23514 1-953; P53619 1-511; P53620 1-874; P35604 1-177). The test can be described thus: GTPase fluorescence assay.

Consider 4 molecules from publication PMC3285272 (Cell, 2012).

B1: full-length βδ-COP dimer (complex, R. norvegicus | B. taurus)
chain 1: MTAAENVCYTLINVPMDSEPPSEISLKNDLEKGDVKSKTEALKKVIIMILNGEKLPGLLMTIIRFVLPLQDHTIKKLLLVFWEIVPKTTPDGRLLHEMILVCDAYRKDLQHPNEFIRGSTLRFLCKLKEAELLEPLMPAIRACLEHRHSYVRRNAVLAIYTIYRNFENLIPDAPELIHDFLVNEKDASCKRNAFMMLIHADQDRALDYLSTCIDQVQTFGDILQLVIVELIYKVCHANPSERARFIRCIYNLLQSSSPAVKYEAAGTLVTLSSAPTAIKAAAQCYIDLIIKESDNNVKLIVLDRLVELKEHPAHERVLQDLVMDILRVLSTPDLEVRKKTLQLALDLVSSRNVEELVIVLKKEVIKTNNVSEHEDTDKYRQLLVRTLHSCSVRFPDMAANVIPVLMEFLSDSNEAAAADVLEFVREAIQRFDNLRMLIVEKMLEVFHAIKSVKIYRGALWILGEYCSTKEDIQSVMTEVRRSLGEIPIVESEIKKEAGELKPEEEITVGPVQKLVTEMGTYATQSALSSSRPTKKEEDRPPLRGFLLDGDFFVAASLATTLTKIALRYVALVQEKKKQNSFVAEAMLLMATILHLGKSSLPKKPITDDDVDRISLCLKVLSECSPLMNDIFNKECRQSLSQMLSAKLEEEKLSQKKESEKRNVTVQPDDPISFMQLTAKNEMNCKEDQFQLSLLAAMGNTQRKEAADPLASKLNKVTQLTGFSDPVYAEAYVHVNQYDIVLDVLVVNQTSDTLQNCTLELATLGDLKLVEKPSPLTLAPHDFANIKANVKVASTENGIIFGNIVYDVSGAASDRNCVVLSDIHIDIMDYIQPATCTDAEFRQMWAEFEWENKVTVNTNVTDLNDYLQHILKSTNMKCLTPEKALSGYCGFMAANLYARSIFGEDALANVSIEKPVHQGPDAAVTGHIRIRAKSQGMALSLGDKINLSQKKTSL
chain 2: MVLLAAAVCTKAGKAIVSRQFVEMTRTRIEGLLAAFPKLMNTGKQHTFVETESVRYVYQPMEKLYMVLITTKNSNILEDLETLRLFSRVIPEYCRALEENEISEHCFDLIFAFDEIVALGYRENVNLAQIRTFTEMDSHEEKVFRAVRETQEREAKAEMRRKAKELQQARRDAERQGKKAPGFGGFGSSTVSGGSTTSMITETIIETDKPKVAPAPARPSGPSKALKLGAKGKEVDNFVDKLKSEGENIISSNMGKRTSEATKVHAPPINMESVHMKIEEKITLTCGRDGGLQNMELHGMIMLRISDDKFGRIRLHVENEDKKGVQLQTHPNVDKKLFTAESLIGLKNPEKSFPVNSDVGVLKWRLQTTEESFIPLTINCWPSESGNGCDVNIEYELQEDNLELNDVVITIPLPSGVGAPVIGEIDGEYRHDSRRNTLEWCLPVIDAKNKSGSLEFSIAGQPNDFFPVQVSFISKKNYCNIQVTKVTQVDGNSPVRFSTETTFLVDKYEIL
With B1, the “percent binding capacity relative to wild-type Arf1” value in test [1] amounted to 90%. In the case of B2, the binding result with full-length γζ-COP dimer is reported as “binds”.

B3: S. cerevisiae Arf1 (residues 18–181) complexed with GppNHp (domain or fragment, UniProt P11076 18-181, looked up)
chain: MRILMVGLDGAGKTTVLYKLKLGEVITTIPTIGFNVETVQYKNISFTVWDVGGQDRIRSLWRHYYRNTEGVIFVVDSNDRSRIGEAREVMQRMLNEDELRNAAWLVFANKQDLPEAMSAAEITEKLGLHSIRNRPWFIQATCATSGEGLYEGLEWLSNSLKNST
For the molecule B3, the binding result in test [2] is “binds”.

B4: H. sapiens Arf1 (residues 18–181) (domain or fragment)
chain: not shown
As to B4, the dissociation constant (Kd) in test [3] was approximately 1000 nM.

As usually defined, the Kd is the equilibrium constant for the complex coming apart. Low readings indicate tighter binding, high ones weaker binding.
